Test results published in the supplement of paper PMC9112550, “Optimization of the antimicrobial peptide Bac7 by deep mutational scanning” (BMC Biology, 2022).

Test system: Escherichia coli TOP10
Test: shrunken log2 fold change of peptide-encoding DNA abundance (4.5 h post-induction vs induction); higher = less antimicrobial activity (less host growth inhibition)
Details: time post-induction: 4.5 h; library: site-saturation at positions 5, 18, 19, 20
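Further: peptides expressed intracellularly from a pBAD plasmid library in pooled LB shake-flask culture, induced with 0.3% L-arabinose, DNA abundance read by NGS, three biological replicates, DESeq2 with apeglm shrinkage.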

| Sequence | shrunken log2 fold change |
| --- | --- |
| RRIRARPPRLPRPRPRPMKVPRP | -0.0785 |
| RRIRKRPPRLPRPRPRPHINPRP | -0.124 |
| RRIRRRPPRLPRPRPRPTNAPRP | 0.158 |
| RRIRRRPPRLPRPRPRPAERPRP | 0.606 |
| RRIRKRPPRLPRPRPRPADQPRP | -0.0199 |
| RRIRVRPPRLPRPRPRPTEYPRP | 0.0465 |
| RRIRSRPPRLPRPRPRPVSFPRP | 0.118 |
| RRIRLRPPRLPRPRPRPSKWPRP | -0.348 |
| RRIRFRPPRLPRPRPRPCMHPRP | -0.111 |
| RRIRLRPPRLPRPRPRPGRAPRP | 0.469 |
| RRIRDRPPRLPRPRPRPESHPRP | 0.0331 |
| RRIRRRPPRLPRPRPRPFHMPRP | -0.0949 |
| RRIRDRPPRLPRPRPRPGTSPRP | -0.0025 |
| RRIRERPPRLPRPRPRPAYVPRP | -0.859 |
| RRIRARPPRLPRPRPRPPEYPRP | 0.386 |
| RRIRSRPPRLPRPRPRPAARPRP | 0.247 |
| RRIRDRPPRLPRPRPRPWNQPRP | -0.0409 |
| RRIRPRPPRLPRPRPRPMIAPRP | -0.0488 |
| RRIRMRPPRLPRPRPRPFMRPRP | 0.345 |
| RRIRWRPPRLPRPRPRPCCGPRP | 0.293 |
| RRIRIRPPRLPRPRPRPEKVPRP | -0.13 |
| RRIRWRPPRLPRPRPRPQEDPRP | -0.0221 |
| RRIRGRPPRLPRPRPRPRICPRP | 0.335 |
| RRIRHRPPRLPRPRPRPVELPRP | 0.115 |
| RRIRWRPPRLPRPRPRPFCPPRP | -0.318 |

| Sequence | shrunken log2 fold change |
| --- | --- |
| RRIRRRPPRLPRPRPRPVYWPRP | 0.303 |
| RRIRFRPPRLPRPRPRPHKRPRP | 0.0127 |
| RRIRARPPRLPRPRPRPITSPRP | 0.157 |
| RRIRARPPRLPRPRPRPTMKPRP | 0.296 |
| RRIRERPPRLPRPRPRPGGTPRP | -0.215 |
| RRIRKRPPRLPRPRPRPYLSPRP | -0.119 |
| RRIRLRPPRLPRPRPRPDRRPRP | 0.0766 |
| RRIRMRPPRLPRPRPRPRHRPRP | 0.249 |
| RRIRMRPPRLPRPRPRPESGPRP | 0.908 |
| RRIRTRPPRLPRPRPRPQNHPRP | -1.49 |
| RRIRVRPPRLPRPRPRPQCKPRP | -0.129 |
| RRIRKRPPRLPRPRPRPYHTPRP | -0.673 |
| RRIRSRPPRLPRPRPRPCDRPRP | -0.00911 |
| RRIRRRPPRLPRPRPRPEAWPRP | 0.14 |
| RRIRYRPPRLPRPRPRPVPPPRP | 0.208 |
| RRIRHRPPRLPRPRPRPACIPRP | -0.132 |
| RRIRMRPPRLPRPRPRPSCCPRP | 0.291 |
| RRIRFRPPRLPRPRPRPQGWPRP | 0.466 |
| RRIRQRPPRLPRPRPRPQYSPRP | 0.124 |
| RRIRERPPRLPRPRPRPCPRPRP | -0.021 |
| RRIRGRPPRLPRPRPRPKKCPRP | 0.544 |
| RRIRIRPPRLPRPRPRPYNEPRP | -0.0675 |
| RRIRKRPPRLPRPRPRPLQNPRP | 0.551 |
| RRIRRRPPRLPRPRPRPQQFPRP | 0.0492 |
| RRIRRRPPRLPRPRPRPAVLPRP | -0.00596 |

| Sequence | shrunken log2 fold change |
| --- | --- |
| RRIRSRPPRLPRPRPRPECMPRP | 0.00574 |
| RRIRSRPPRLPRPRPRPSIPPRP | -0.458 |
| RRIRNRPPRLPRPRPRPECFPRP | 0.0864 |
| RRIRFRPPRLPRPRPRPSIHPRP | -0.84 |
| RRIRERPPRLPRPRPRPWDGPRP | 0.421 |
| RRIRHRPPRLPRPRPRPWCCPRP | -0.352 |
| RRIRERPPRLPRPRPRPRVAPRP | 0.343 |
| RRIRLRPPRLPRPRPRPSHDPRP | -0.385 |
| RRIRKRPPRLPRPRPRPTHEPRP | 0.267 |
| RRIRRRPPRLPRPRPRPDHFPRP | 0.0408 |
| RRIRYRPPRLPRPRPRPIDFPRP | -0.245 |
| RRIRERPPRLPRPRPRPWRFPRP | -0.117 |
| RRIRERPPRLPRPRPRPMLCPRP | 0.05 |
| RRIRYRPPRLPRPRPRPVRWPRP | 0.164 |
| RRIRWRPPRLPRPRPRPVSDPRP | 0.191 |
| RRIRIRPPRLPRPRPRPQKRPRP | -0.143 |
| RRIRTRPPRLPRPRPRPRLPPRP | 0.119 |
| RRIRNRPPRLPRPRPRPYGGPRP | -0.0102 |
| RRIRFRPPRLPRPRPRPWMGPRP | -0.592 |
| RRIRSRPPRLPRPRPRPCPPPRP | -0.244 |
| RRIRSRPPRLPRPRPRPTHNPRP | -0.133 |
| RRIRQRPPRLPRPRPRPGDIPRP | -0.0112 |
| RRIRFRPPRLPRPRPRPDGRPRP | 0.023 |
| RRIRSRPPRLPRPRPRPTTLPRP | -0.0324 |
| RRIRERPPRLPRPRPRPDKGPRP | -0.0116 |

| Sequence | shrunken log2 fold change |
| --- | --- |
| RRIRRRPPRLPRPRPRPGTPPRP | 0.435 |
| RRIRYRPPRLPRPRPRPNKLPRP | -0.987 |
| RRIRFRPPRLPRPRPRPQKPPRP | 0.121 |
| RRIRTRPPRLPRPRPRPCYHPRP | -0.637 |
| RRIRIRPPRLPRPRPRPPVGPRP | 0.59 |
| RRIRCRPPRLPRPRPRPGNSPRP | -0.429 |
| RRIRKRPPRLPRPRPRPRIDPRP | -0.154 |
| RRIRFRPPRLPRPRPRPNFTPRP | -0.0305 |
| RRIRMRPPRLPRPRPRPAAFPRP | 0.503 |
| RRIRGRPPRLPRPRPRPHEWPRP | 0.116 |
| RRIRYRPPRLPRPRPRPERKPRP | -0.109 |
| RRIRIRPPRLPRPRPRPKCIPRP | -0.399 |
| RRIRHRPPRLPRPRPRPVVKPRP | -0.132 |
| RRIRNRPPRLPRPRPRPASWPRP | 0.369 |
| RRIRTRPPRLPRPRPRPVWEPRP | 0.264 |
| RRIRQRPPRLPRPRPRPCTTPRP | -0.104 |
| RRIRGRPPRLPRPRPRPVMFPRP | 0.451 |
| RRIRGRPPRLPRPRPRPAWTPRP | 0.619 |
| RRIRERPPRLPRPRPRPQFQPRP | -0.0426 |
| RRIRQRPPRLPRPRPRPHQGPRP | 0.0866 |
| RRIRPRPPRLPRPRPRPHNRPRP | -0.0456 |
| RRIRARPPRLPRPRPRPVWNPRP | 0.0865 |
| RRIRARPPRLPRPRPRPYIGPRP | 0.00388 |
| RRIRPRPPRLPRPRPRPHMFPRP | 0.00976 |
| RRIRYRPPRLPRPRPRPSFFPRP | -0.665 |

| Sequence | shrunken log2 fold change |
| --- | --- |
| RRIRFRPPRLPRPRPRPDLQPRP | -0.0778 |
| RRIRARPPRLPRPRPRPCSDPRP | 0.431 |
| RRIRLRPPRLPRPRPRPTEYPRP | -0.0401 |
| RRIRVRPPRLPRPRPRPIKPPRP | -0.15 |
| RRIRIRPPRLPRPRPRPDLQPRP | -0.0567 |
| RRIRLRPPRLPRPRPRPEGQPRP | -0.118 |
| RRIRHRPPRLPRPRPRPEADPRP | -0.00192 |
| RRIRTRPPRLPRPRPRPTKHPRP | -0.258 |
| RRIRERPPRLPRPRPRPHPMPRP | -0.334 |
| RRIRCRPPRLPRPRPRPPCMPRP | -0.159 |
| RRIRERPPRLPRPRPRPASAPRP | 0.33 |
| RRIRMRPPRLPRPRPRPVRPPRP | 1.76 |
| RRIRVRPPRLPRPRPRPWFVPRP | -0.475 |
| RRIRMRPPRLPRPRPRPYKHPRP | -0.872 |
| RRIRIRPPRLPRPRPRPANAPRP | -0.319 |
| RRIRHRPPRLPRPRPRPVDKPRP | -0.308 |
| RRIRQRPPRLPRPRPRPWFYPRP | -0.373 |
| RRIRGRPPRLPRPRPRPATSPRP | 0.914 |
| RRIRPRPPRLPRPRPRPIVWPRP | 0.0606 |
| RRIRTRPPRLPRPRPRPKILPRP | -0.0614 |
| RRIRNRPPRLPRPRPRPCPRPRP | -0.0673 |
| RRIRGRPPRLPRPRPRPDFCPRP | 2.03 |
| RRIRWRPPRLPRPRPRPSIIPRP | -0.31 |
| RRIRHRPPRLPRPRPRPVDHPRP | -0.0462 |
| RRIRKRPPRLPRPRPRPNQVPRP | -0.0821 |
